In publication PMC8813930, “The toposiomerase IIIalpha-RMI1-RMI2 complex orients human Bloom’s syndrome helicase for efficient disruption of D-loops”:

Target: TOPOIIIalpha (TRR complex);RMI1 (TRR complex);RMI2 (TRR complex) (Homo sapiens;Homo sapiens;Homo sapiens, UniProt Q13472;Q9H9A7;Q96E14 1-1001;1-625;1-147, ||)
Test: fluorescence anisotropy; 5 mM MgCl2; 50 mM Tris-HCl pH 7.5, 50 mM NaCl, 1 mM DTT, 5 mM MgCl2, 50 µg/mL BSA, 25 °C; 10 nM labeled DNA in direct titrations
Details: protein: recombinant;recombinant;recombinant; tags: His;;; copies: 1;1;1; label: 3'-fluorescein; single strand

Chain of TOPOIIIalpha (TRR complex);RMI1 (TRR complex);RMI2 (TRR complex) (Q13472 whole entry, chain 1 of 3): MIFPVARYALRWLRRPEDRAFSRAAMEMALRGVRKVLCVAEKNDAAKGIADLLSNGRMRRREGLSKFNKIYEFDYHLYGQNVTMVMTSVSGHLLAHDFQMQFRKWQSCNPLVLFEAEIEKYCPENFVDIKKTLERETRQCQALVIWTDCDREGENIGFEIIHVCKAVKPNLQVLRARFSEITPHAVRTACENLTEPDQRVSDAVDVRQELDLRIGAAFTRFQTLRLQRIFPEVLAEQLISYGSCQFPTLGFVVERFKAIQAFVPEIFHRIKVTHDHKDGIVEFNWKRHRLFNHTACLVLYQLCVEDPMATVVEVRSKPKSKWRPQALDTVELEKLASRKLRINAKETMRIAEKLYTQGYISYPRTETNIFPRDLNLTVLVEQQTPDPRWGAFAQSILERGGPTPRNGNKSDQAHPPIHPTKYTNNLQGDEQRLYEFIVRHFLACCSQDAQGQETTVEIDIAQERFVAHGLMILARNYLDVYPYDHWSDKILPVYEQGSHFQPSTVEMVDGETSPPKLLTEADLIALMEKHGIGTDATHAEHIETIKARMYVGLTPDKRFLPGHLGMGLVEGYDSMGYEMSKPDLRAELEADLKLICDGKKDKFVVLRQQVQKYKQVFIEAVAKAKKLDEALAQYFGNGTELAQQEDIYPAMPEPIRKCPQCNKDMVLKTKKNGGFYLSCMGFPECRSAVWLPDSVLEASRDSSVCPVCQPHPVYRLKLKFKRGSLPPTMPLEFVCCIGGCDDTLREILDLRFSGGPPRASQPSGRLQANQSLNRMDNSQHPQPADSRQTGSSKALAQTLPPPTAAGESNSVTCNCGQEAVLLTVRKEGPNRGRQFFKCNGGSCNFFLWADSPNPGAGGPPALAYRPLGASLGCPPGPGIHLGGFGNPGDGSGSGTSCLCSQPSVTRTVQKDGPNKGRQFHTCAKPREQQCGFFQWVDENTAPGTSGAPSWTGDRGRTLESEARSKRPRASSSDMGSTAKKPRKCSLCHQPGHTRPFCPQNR
Chain of TOPOIIIalpha (TRR complex);RMI1 (TRR complex);RMI2 (TRR complex) (Q9H9A7 whole entry, chain 2 of 3): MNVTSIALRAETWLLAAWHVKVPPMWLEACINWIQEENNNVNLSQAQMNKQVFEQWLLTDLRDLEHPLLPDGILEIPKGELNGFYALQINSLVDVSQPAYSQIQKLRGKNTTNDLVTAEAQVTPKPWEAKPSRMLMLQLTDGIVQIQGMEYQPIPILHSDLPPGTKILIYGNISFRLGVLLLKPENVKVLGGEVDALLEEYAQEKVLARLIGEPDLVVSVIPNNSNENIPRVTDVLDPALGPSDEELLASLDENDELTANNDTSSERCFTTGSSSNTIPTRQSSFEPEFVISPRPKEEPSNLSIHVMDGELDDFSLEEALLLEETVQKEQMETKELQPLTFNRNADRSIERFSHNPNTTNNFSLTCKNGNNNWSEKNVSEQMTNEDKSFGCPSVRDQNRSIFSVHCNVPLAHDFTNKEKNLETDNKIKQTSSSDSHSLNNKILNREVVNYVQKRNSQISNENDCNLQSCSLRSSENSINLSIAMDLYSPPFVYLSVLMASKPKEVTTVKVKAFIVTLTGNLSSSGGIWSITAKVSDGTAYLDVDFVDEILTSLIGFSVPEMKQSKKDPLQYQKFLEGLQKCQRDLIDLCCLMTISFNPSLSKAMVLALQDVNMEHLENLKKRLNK
Chain of TOPOIIIalpha (TRR complex);RMI1 (TRR complex);RMI2 (TRR complex) (Q96E14 whole entry, chain 3 of 3): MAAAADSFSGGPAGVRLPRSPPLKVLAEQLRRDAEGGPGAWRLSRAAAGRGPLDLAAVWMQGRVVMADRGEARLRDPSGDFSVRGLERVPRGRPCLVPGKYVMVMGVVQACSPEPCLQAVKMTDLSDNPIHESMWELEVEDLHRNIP

B1: ss54-FLU (ssDNA)
DNA: TCCTTTTGATAAGAGGTCATTTTTGCGGATGGCTTAGAGCTTAATTGCGCAACG
With B1 the Kd was 64 ± 13 nM.
